Reference: publication PMC11847078

Tests used:
GSK3β = GSK3β (UniProt P49841); experiment: split-luciferase complementation assay in HEK293; settings: reference: vehicle (0.5% DMSO); sites T1936
CD4-Nav1.6-CTD-NLuc = CD4-Nav1.6-CTD-NLuc (UniProt Q9UQD0); experiment: split reporter (BiFC, NanoBiT); in-cell split-luciferase complementation assay (LCA); HEK293 cells transiently cotransfected with CD4-Nav1.6-CTD-NLuc and CLuc-GSK3β or a mutant; D-luciferin, 37 °C; peak luminescence as percent of the per-plate control; in one set cells treated with vehicle (0.5% DMSO) or 2 μM CHIR99021 for 1 h before the read-out
Chain of UniProt Q9UQD0 (Q9UQD0 whole entry): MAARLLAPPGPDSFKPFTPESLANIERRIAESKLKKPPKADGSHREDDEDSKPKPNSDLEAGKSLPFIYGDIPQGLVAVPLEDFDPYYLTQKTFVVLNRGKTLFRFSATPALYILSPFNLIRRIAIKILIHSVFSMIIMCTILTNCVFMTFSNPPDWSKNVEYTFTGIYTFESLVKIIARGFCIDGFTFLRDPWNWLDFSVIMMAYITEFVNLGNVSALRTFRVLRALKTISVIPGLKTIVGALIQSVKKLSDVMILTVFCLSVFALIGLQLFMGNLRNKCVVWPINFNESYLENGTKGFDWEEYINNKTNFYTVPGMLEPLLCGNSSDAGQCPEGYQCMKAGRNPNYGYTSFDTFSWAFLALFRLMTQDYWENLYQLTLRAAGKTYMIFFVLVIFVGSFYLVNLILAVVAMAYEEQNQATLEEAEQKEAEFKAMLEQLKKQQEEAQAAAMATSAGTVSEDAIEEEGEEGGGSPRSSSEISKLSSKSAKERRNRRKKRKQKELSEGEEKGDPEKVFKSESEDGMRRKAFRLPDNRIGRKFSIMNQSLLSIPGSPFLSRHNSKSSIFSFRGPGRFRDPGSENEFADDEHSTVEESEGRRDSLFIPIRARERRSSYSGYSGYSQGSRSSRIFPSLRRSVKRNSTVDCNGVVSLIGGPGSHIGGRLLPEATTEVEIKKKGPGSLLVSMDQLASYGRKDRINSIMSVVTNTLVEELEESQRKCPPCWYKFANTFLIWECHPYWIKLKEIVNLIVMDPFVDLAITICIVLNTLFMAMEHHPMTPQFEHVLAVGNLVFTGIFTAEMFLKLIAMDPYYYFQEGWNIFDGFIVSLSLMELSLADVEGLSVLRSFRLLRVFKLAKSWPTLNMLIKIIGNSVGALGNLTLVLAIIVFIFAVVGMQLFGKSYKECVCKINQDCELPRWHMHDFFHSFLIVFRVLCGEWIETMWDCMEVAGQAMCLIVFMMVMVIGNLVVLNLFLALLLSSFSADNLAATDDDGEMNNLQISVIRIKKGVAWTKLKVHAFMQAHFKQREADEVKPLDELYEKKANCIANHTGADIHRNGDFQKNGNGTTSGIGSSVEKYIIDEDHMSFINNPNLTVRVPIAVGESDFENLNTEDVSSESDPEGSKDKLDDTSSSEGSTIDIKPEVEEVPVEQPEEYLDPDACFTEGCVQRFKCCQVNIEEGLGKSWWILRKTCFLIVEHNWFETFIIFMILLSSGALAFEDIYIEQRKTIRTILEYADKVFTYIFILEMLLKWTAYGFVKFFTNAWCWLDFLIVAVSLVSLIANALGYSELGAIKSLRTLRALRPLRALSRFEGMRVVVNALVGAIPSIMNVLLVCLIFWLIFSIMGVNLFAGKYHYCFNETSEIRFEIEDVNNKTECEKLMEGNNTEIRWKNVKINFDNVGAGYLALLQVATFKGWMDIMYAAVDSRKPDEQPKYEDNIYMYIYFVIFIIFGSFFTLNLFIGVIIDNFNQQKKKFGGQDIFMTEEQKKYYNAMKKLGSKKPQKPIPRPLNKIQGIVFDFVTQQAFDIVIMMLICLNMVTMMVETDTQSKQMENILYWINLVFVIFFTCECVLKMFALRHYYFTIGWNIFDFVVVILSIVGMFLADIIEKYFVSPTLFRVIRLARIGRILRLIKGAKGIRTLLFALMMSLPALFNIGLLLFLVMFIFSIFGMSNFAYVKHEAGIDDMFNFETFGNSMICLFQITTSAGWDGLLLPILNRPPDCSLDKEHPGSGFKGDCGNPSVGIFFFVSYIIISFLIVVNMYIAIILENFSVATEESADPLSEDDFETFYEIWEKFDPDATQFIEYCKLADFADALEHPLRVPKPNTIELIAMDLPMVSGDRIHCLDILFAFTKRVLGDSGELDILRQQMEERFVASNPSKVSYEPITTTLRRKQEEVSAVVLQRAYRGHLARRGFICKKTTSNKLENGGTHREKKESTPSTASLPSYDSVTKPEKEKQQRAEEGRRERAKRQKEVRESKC

Chain of CLuc-GSK3β (P49841 whole entry): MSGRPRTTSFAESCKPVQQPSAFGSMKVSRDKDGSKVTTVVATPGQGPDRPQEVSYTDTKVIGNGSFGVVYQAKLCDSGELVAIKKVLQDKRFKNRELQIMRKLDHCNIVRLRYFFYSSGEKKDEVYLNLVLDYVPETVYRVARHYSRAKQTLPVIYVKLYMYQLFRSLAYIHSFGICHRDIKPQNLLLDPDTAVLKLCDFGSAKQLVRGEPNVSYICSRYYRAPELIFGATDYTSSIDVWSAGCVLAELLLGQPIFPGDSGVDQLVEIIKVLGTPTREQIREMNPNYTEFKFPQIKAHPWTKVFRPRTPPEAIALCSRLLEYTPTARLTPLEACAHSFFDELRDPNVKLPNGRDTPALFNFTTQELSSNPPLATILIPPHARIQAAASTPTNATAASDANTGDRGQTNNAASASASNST

| Substance | % Lum (luminescence relative to Nav1.6:GSK3β control) (CD4-Nav1.6-CTD-NLuc) [% Lum] | % Lum with 2 μM CHIR99021 (relative to Nav1.6:GSK3β + DMSO) (CD4-Nav1.6-CTD-NLuc) [% Lum] | also measured |
| --- | --- | --- | --- |
| Nav1.6 C-terminal domain (CTD) 2 μM CHIR99021, 1 h |  |  | other: % luminescence of WT GSK3β + DMSO control (GSK3β): same; reference 60.9 ± 3.3; percent of reference (GSK3β): same; reference 100.0 ± 4.4 |
| CLuc-GSK3βΔCTD (from UniProt P49841 1-343) (domain or fragment) | 167 |  |  |
| CLuc-GSK3β (from UniProt P49841 1-420) (enzyme) |  | 91.2 | % Lum with vehicle (0.5% DMSO; the control to which the set is normalised) (CD4-Nav1.6-CTD-NLuc): 100 % Lum |
| CLuc-GSK3βΔABD (from UniProt P49841 1-420) (enzyme) | 42 | 58.2 | % Lum with vehicle (0.5% DMSO) (relative to Nav1.6:GSK3β + DMSO) (CD4-Nav1.6-CTD-NLuc): 60.9 % Lum |
